Legend:
[1] = target: T1, TROP-2 (EGP-1), human, on tumor cell lines (human, UniProt P09758 27-323); test: cell binding on TROP-2-positive PC-3 human prostate carcinoma cells, three separate occasions
T1 construct: whole, on cells; 36-kDa cell-surface glycoprotein; also called epithelial glycoprotein-1
T1 sequence (looked up): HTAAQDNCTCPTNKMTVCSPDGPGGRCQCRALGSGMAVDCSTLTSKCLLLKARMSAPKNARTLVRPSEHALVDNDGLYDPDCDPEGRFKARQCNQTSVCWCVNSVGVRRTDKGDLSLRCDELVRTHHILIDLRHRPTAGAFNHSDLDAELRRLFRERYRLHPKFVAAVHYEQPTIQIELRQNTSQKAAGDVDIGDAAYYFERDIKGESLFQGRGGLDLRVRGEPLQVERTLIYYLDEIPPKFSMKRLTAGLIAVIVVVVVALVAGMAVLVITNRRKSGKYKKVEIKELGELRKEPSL

[2] = target: Human neonatal receptor (FcRn) (human, UniProt P55899 24-297, limits assumed); test: SPR (BIACore), low density FcRn biosensor chip, three runs of five dilutions
Chain of Human neonatal receptor (FcRn) (P55899 24-297 limits assumed): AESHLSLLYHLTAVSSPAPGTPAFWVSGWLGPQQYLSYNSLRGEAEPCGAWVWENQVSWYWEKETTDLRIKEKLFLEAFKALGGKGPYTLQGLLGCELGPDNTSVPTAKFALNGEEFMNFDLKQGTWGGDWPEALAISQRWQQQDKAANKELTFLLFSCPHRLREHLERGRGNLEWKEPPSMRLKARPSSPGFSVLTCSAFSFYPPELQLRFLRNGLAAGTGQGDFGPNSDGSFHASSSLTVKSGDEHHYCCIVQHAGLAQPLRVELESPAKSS

B1: hRS7 IgG (humanized anti-TROP-2 IgG1 monoclonal antibody, unconjugated) (antibody)
chain 1: not shown
chain 2: DIQLTQSPSSLSASVGDRVSITCKASQDVSIAVAWYQQKPGKAPKLLIYSASYRYTGVPDRFSGSGSGTDFTLTISSLQPEDFAVYYCQQHYITPLTFGAGTKVEIKRTVAAPSVFIFPPSDEQLKSGTASVVCLLNNFYPREAKVQWKVDNALQSGNSQESVTEQDSKDSTYSLSSTLTLSKADYEKHKVYACEVTHQGLSSPVTKSFNRGEC
[1]
  Kd: 0.564 nM
[2]
  Kd: 192 nM
